From patent US20100254992A1 (published 2010)
Substitutions are numbered along the chain they refer to.

T1: human Eotaxin 3 (human, UniProt Q9Y258 24-94)
T1 sequence (looked up): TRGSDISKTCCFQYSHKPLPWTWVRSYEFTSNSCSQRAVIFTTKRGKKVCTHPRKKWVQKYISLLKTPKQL

T2: human Eotaxin 2 (human, UniProt O00175 27-104, limits assumed)
T2 sequence (looked up): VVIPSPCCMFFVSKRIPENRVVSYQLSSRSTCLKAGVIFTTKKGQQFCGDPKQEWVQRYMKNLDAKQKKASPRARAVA

T3: human MCP-2 (human, UniProt P80075 24-99)
T3 construct: also called CCL8
T3 sequence (looked up): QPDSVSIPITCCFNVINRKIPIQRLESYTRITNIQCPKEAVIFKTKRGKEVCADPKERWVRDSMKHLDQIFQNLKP

B1: CNTO 888 (antibody, V domains shown)
VH: QVQLVQSGAEVKKPGSSVKVSCKASGGTFSSYGISWVRQAPGQGLEWMGGIIPIFGTANYAQKFQGRVTITADESTSTAYMELSSLRSEDTAVYYCARYDGIYGELDFWGQGTLVTVSS
VL: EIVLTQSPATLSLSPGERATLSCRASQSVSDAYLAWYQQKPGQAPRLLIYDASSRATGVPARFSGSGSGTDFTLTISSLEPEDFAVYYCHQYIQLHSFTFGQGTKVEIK
notes: Fully human IgG1 kappa
B2: MOR03849 IgG (antibody, V domains shown)
VH: B1 VH with Q3E, G50A, I52N, I54L, F55A, T57H, A58T, N59H
VL: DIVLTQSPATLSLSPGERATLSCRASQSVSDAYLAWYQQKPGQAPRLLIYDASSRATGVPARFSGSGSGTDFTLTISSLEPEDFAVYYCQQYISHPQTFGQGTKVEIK
B3: MOR03899 IgG1 (antibody, V domains shown)
VH: B1 VH with Q3E, G50A, I52N, I54L, F55A, T57H, A58T, N59H
VL: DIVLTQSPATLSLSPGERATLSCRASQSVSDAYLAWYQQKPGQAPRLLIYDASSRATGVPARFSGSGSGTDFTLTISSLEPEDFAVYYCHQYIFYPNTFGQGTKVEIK
notes: Human IgG1; also called MOR3899 IgG1; MOR3899k IgG
B4: MOR03885 IgG (antibody, V domains shown)
VH: B1 VH with Q3E, G50A, I52N, I54L, F55A, T57H, A58T, N59H
VL: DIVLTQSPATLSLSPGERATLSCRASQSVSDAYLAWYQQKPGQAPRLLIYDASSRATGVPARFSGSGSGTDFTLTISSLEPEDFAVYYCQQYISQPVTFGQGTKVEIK
B5: MOR03878 IgG1 (antibody, V domains shown)
VH: B1 VH with Q3E, G50A, I52N, I54L, F55A, T57H, A58T, N59H
VL: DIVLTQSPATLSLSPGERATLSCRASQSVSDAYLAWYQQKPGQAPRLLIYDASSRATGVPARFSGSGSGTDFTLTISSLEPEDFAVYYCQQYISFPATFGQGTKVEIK
notes: Human IgG1; also called MOR3878 IgG1; MOR3878k IgG
B6: MOR03781 IgG1 (antibody, V domains shown)
VH: B1 VH with Q3E
VL: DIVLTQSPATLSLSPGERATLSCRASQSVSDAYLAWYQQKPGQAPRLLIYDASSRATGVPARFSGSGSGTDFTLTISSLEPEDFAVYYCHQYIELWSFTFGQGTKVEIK
notes: Human IgG1; also called MOR3781 IgG1; MOR3781k IgG
B7: MOR03850 IgG1 (antibody, V domains shown)
VH: B1 VH with Q3E, G50A, I52N, I54L, F55A, T57H, A58T, N59H
VL: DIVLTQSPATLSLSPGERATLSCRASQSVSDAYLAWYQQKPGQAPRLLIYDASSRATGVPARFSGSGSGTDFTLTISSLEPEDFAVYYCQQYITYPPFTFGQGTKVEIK
notes: Human IgG1; also called MOR3850 IgG1; MOR3850k IgG
B8: MOR03878 Fab (Fab, V domains shown)
VH: B1 VH with Q3E, G50A, I52N, I54L, F55A, T57H, A58T, N59H
VL: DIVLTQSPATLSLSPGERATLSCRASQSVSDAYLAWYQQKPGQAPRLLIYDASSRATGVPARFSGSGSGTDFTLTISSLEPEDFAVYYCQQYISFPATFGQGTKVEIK
notes: MOR03471 cross-clone (3822 × 3794); Fab with C-terminal FLAG and 6x His tags; also called MOR3878; MOR3878k
B9: MOR03781 Fab (Fab, V domains shown)
VH: B1 VH with Q3E
VL: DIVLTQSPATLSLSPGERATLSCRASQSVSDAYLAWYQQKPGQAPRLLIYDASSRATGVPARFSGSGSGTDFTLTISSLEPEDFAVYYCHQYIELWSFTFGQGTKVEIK
notes: MOR03471 derivative (L-CDR3); Fab with C-terminal FLAG and 6x His tags; also called MOR3781; MOR3781k
B10: MOR03850 Fab (Fab, V domains shown)
VH: B1 VH with Q3E, G50A, I52N, I54L, F55A, T57H, A58T, N59H
VL: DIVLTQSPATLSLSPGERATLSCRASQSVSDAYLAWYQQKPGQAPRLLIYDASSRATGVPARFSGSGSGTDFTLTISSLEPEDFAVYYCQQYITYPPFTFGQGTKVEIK
notes: MOR03471 cross-clone (3822 × 3819); Fab with C-terminal FLAG and 6x His tags; also called MOR3850; MOR3850k
B11: MOR03899 Fab (Fab, V domains shown)
VH: B1 VH with Q3E, G50A, I52N, I54L, F55A, T57H, A58T, N59H
VL: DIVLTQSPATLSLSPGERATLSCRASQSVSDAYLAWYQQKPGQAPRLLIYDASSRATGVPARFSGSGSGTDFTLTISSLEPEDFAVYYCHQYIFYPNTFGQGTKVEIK
notes: MOR03471 cross-clone (3822 × 3876); Fab with C-terminal FLAG and 6x His tags; also called MOR3899; MOR3899k
B12: MOR03754 Fab (Fab, V domains shown)
VH: QVQLVESGGGLVQPGGSLRLSCAASGFTFRSYGMSWVRQAPGKGLEWVSSIEHKWSGYATTYAASVKGRFTISRDNSKNTLYLQMNSLRAEDTAVYYCARFEFTPWTYFDFWGQGTLVTVSS
VL: DIELTQPPSVSVAPGQTARISCSGDNLGKKYVYWYQQKPGQAPVLVIYDDDNRPSGIPERFSGSNSGNTATLTISGTQAEDEADYYCQSYTAQSSASFGGGTKLTVL

Biological target: T1, human Eotaxin 3
Test: BIAcore

binding result	Binder
no binding	B1

Biological target: T4, human MCP-3 (human, UniProt P80098 24-99)
T4 construct: also called CCL7
T4 sequence (P80098 24-99 limits assumed): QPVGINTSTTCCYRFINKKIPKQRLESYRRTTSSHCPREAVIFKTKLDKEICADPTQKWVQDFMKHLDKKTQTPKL
Test: BIAcore

binding result	Binder
no binding	B1

Biological target: T5, human MCP-4 (human, UniProt Q99616 24-98, limits assumed)
T5 construct: also called CCL13
Test: BIAcore

binding result	Binder
no binding	B1

Biological target: T6, human Eotaxin 1 (human, UniProt P51671 24-97)
Test: BIAcore

binding result	Binder
no binding	B1

Biological target: T2, human Eotaxin 2
Test: BIAcore

binding result	Binder
no binding	B1

Biological target: T1, human Eotaxin 3
Test: Biacore, IgG capture mode

binding result	Binder
no binding (tested: 100 nM)	B2
no binding (tested: 100 nM)	B3
no binding (tested: 100 nM)	B4
no binding (tested: 100 nM)	B5
no binding (tested: 100 nM)	B6
no binding (tested: 100 nM)	B7

Biological target: T3, human MCP-2
Test: Biacore, IgG capture mode

binding result	Binder
no binding (tested: 100 nM)	B2
no binding (tested: 100 nM)	B4

Biological target: T4, human MCP-3
Test: Biacore, IgG capture mode

binding result	Binder
no binding (tested: 100 nM)	B2
no binding (tested: 100 nM)	B3
no binding (tested: 100 nM)	B4
no binding (tested: 100 nM)	B5
no binding (tested: 100 nM)	B6
no binding (tested: 100 nM)	B7

Biological target: T5, human MCP-4
Test: Biacore, IgG capture mode

binding result	Binder
no binding (tested: 100 nM)	B2
no binding (tested: 100 nM)	B3
no binding (tested: 100 nM)	B4
no binding (tested: 100 nM)	B5
no binding (tested: 100 nM)	B6
no binding (tested: 100 nM)	B7

Biological target: T6, human Eotaxin 1
Test: Biacore, IgG capture mode

binding result	Binder
no binding (tested: 100 nM)	B2
no binding (tested: 100 nM)	B4
no binding (tested: 100 nM)	B6

Biological target: T2, human Eotaxin 2
Test: Biacore, IgG capture mode

binding result	Binder
no binding (tested: 100 nM)	B2
no binding (tested: 100 nM)	B3
no binding (tested: 100 nM)	B4
no binding (tested: 100 nM)	B5
no binding (tested: 100 nM)	B6
no binding (tested: 100 nM)	B7

Biological target: T7, Human Monocyte Chemoattractant Protein-1 (MCP-1) (human, UniProt P13500 24-99, 125I label on the radioligand form; letters are the unlabelled wild-type protein)
T7 sequence (P13500 24-99 limits assumed): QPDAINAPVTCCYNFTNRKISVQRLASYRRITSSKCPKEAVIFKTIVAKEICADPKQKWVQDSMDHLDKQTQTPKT
Test: cell-based or functional assay

Inhibition of Ca2+ Mobilization IC50	Binder
20.2 nM	B8
5.85 nM	B3
21.8 nM	B9
6.7 nM	B5
28.4 nM	B10
17.5 nM	B11
10.9 nM	B6
9.47 nM	B7

Biological target: T8, cynomolgus monkey MCP-1 (cynomolgus monkey, UniProt P61274 24-99)
T8 construct: also called cyno MCP-1; cyno CCL-2
T8 sequence (P61274 24-99 limits assumed): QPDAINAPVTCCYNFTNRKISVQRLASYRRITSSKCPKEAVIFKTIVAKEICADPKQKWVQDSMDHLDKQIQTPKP
Test: BioVeris, Cyno MCP-1 Kd
Description: (§1) Affinity determination in solution was basically performed as described in the literature (Friguet et al., 1985). In order to improve the sensitivity and accuracy of the SET method, it was transferred from classical ELISA to ECL based BioVeris technology (Haenel et al., 2005, accepted for publication in Analytical Biochemistry). 1 mg/ml goat-anti-human (Fab)₂ or goat-anti-mouse IgG, Fc fragment specific antibodies (Jackson Immuno Research) were labelled with BV-tag™ NHS-Ester (Bioveris Europe, Witney, Oxfordshire, UK) according to manufacturer's instructions. The experiments were carried out in polypropylene microtiter plates and PBS pH 7.4 with 0.5% BSA and 0.02% Tween 20 as assay buffer. Unlabeled antigen was diluted in 4ⁿ series: For human and cyno MCP-1 a concentration range of 10 pM to 40 nM and for cross-reactivity controls (Eotaxin and MCP-2) a concentration range of 40 pM to 160 nM was chosen. Wells without antigen were used to determine Smax values. After addition of 100 pM Fab or IgG (final concentration in 75 μL final volume), the mixture was incubated for 2 hours at RT. Subsequently a mixture of 25 μl Dynabeads (0.4 mg/ml M-280 Streptavidin, DYNAL, Hamburg), coated with 0.25 μg/ml biotinylated MCP-1 (K69) and BV-tag labeled detection antibody in a final dilution of 1:4000 for anti-human Fab or 1:2000 for anti-mouse IgG were added per well.
(§2) Solution Equilibrium Titration Using BioVeris. As an alternative method for sensitive KD determinations, the solution equilibrium titration (SET) using BioVeris technology was performed. Monovalent dissociation constants were calculated by means of appropriate fit models for Fab and IgG. This method was suitable for affinity measurement and cross-reactivity studies. All selected 16 binders were analyzed by solution equilibrium titration (SET) using BioVeris (Table 5 and Table 6) and these affinity values were regarded as the final affinity values.

Kd	Binder
0.32 nM	B8
0.36 nM	B3
0.01 nM	B9
0.23 nM	B5
0.04 nM	B10
0.49 nM	B11
0.02 nM	B6
0.01 nM	B7

Biological target: T7, Human Monocyte Chemoattractant …
Test: IGEN (BioVeris), MCP-1 Kd
Description: as §1, §2

Kd	Binder
0.32 nM	B8
0.34 nM	B3
0.03 nM	B9
0.27 nM	B5
0.04 nM	B10
0.81 nM	B11
0.02 nM	B6
0.01 nM	B7

Biological target: T7, Human Monocyte Chemoattractant …
Test: BioVeris solution equilibrium titration, Fab, rh MCP-1
Description: as §1, §2

Kd	Binder
0.32 nM	B8
0.03 nM	B9
0.04 nM	B10
0.81 nM	B11

Biological target: T7, Human Monocyte Chemoattractant …
Test: BioVeris solution equilibrium titration, IgG1, rh MCP-1
Description: as §1, §2

Kd	Binder
0.34 nM	B3
0.27 nM	B5
0.02 nM	B6
0.011 nM	B7

Biological target: T8, cynomolgus monkey MCP-1
Test: BioVeris solution equilibrium titration, Fab, cyno MCP-1
Description: as §1, §2

Kd	Binder
0.32 nM	B8
0.04 nM	B10
0.49 nM	B11

Biological target: T8, cynomolgus monkey MCP-1
Test: BioVeris solution equilibrium titration, IgG1, cyno MCP-1
Description: as §1, §2

Kd	Binder
0.36 nM	B3
0.23 nM	B5
0.016 nM	B6
0.021 nM	B7

Biological target: T3, human MCP-2
Test: 125I-MCP-2 binding to CCR2 on Thp-1 cells, radioligand competition

IC50	Binder
≥ 2000 nM	B12

Biological target: T7, Human Monocyte Chemoattractant …
Test: 125I-MCP-1 binding to CCR2 on THP-1 cells, radioligand competition

IC50	Binder
0.11 nM	B8
0.05 nM	B3
0.18 nM	B9
0.03 nM	B5
0.16 nM	B10
0.13 nM	B11
0.02 nM	B6
0.05 nM	B7
